This note sets out measurements from US20090275081A1.

Assay [1] has as its target carcinoembryonic antigen (CEA) on LS174T-CEA+ human colon carcinoma cells (human) (UniProt P06731). Briefly: flow cytometry on live LS174T-CEA+ cells, detected with Qdot655SA; percent positive staining.
For assay [2], the target named is streptavidin agarose beads (ImmunoPure streptavidin coated beads, Pierce) (UniProt P22629). Briefly: pull-down of 3.5 ug purified protein on streptavidin agarose beads, Western blot with SA HRP.
The target of assay [3] is carcinoembryonic antigen (CEA) on LS174T-CEA+ human colon carcinoma cells (human) (UniProt P06731). The experiment in a line: flow cytometry on live LS174T-CEA+ cells, detected with Alexa Fluor 488 streptavidin; percent positive staining.
The target in assay [4] is streptavidin agarose beads (ImmunoPure streptavidin coated beads, Pierce) (UniProt P22629). Briefly: pull-down on streptavidin agarose beads, Western blot. Background: A western blot detects proteins with antibodies after separation by electrophoresis.

Sequence of UniProt P22629 (P22629 37-163 limits assumed): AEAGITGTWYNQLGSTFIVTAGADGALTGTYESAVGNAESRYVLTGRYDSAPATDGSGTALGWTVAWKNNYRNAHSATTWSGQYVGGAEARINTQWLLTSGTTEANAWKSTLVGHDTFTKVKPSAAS
Sequence of UniProt P06731 (P06731 35-702): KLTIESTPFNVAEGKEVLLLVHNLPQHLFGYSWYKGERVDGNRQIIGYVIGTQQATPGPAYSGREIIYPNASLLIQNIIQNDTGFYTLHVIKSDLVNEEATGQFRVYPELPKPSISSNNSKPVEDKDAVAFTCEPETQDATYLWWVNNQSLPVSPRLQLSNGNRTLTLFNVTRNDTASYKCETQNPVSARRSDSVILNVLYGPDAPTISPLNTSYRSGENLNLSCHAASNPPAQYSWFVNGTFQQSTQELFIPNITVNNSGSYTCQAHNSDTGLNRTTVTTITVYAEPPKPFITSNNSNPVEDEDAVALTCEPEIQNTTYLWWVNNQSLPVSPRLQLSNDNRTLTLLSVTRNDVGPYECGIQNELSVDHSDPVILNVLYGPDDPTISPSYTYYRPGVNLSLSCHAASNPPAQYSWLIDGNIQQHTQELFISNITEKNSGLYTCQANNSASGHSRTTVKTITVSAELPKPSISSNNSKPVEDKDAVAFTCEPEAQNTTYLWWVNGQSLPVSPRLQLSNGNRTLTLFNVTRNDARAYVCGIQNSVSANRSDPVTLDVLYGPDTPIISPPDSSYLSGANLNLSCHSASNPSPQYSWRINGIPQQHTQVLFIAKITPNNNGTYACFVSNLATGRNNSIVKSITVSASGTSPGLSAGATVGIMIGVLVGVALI

As for “Db-BD123 (biotinylated anti-CEA T84.66 diabody fused to the 123 aa biotin acceptor domain of P. shermanii)”, in assay [1], the LS174T binding (%), Qdot streptavidin was determined as 17.7%. The same substance returned a Binding with streptavidin agarose (%) in assay [2] of 95%. Further, in assay [3], the LS174T binding (%), Streptavidin Alexa amounted to 11.7%.
In assay [4], “Db-BP15-His (biotinylated anti-CEA T84.66 diabody with 15 aa biotin acceptor peptide followed by 6xHis tag)” showed a percent unbound of 10%. Further, the LS174T binding (%), Qdot streptavidin in assay [1] came to 41%. The same substance had a Binding with streptavidin agarose (%) in assay [2] of 90%. In assay [3], this substance had an LS174T binding (%), Streptavidin Alexa of 56%.
